The values below come from the supplement of paper PMC10567573.

This data set is described as follows: protein stability index of a GFP-peptide fusion (GPS, HEK-293T) (PSI 1-6); higher = more stable.
Setting [1] is: treatment: DMSO, c terminus: a fixed tail appended.
Setting [2] is: treatment: MLN4924 1 uM, 8 h, c terminus: a fixed tail appended.
The mark [3] stands for this setting: treatment: DMSO, c terminus: native.
Where [4] appears, read: treatment: MLN4924 1 uM, 8 h, c terminus: native.

± gives the standard deviation.
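Note: 24-mer peptide tiles fused after GFP, lentivirally expressed, FACS-sorted into six equal bins by GFP/DsRed ratio, decoded by Illumina sequencing, PSI is the read-weighted mean bin number.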

Consider TAKDNGEAEDQEEKEDAEKENIEK [SRPK2], for which the protein stability index under setting [1] stood at 5.58 ± 0.12 and the protein stability index under setting [2] came out at 5.67 ± 0.25.

PHRVLETRGHAISILFGFWTSFIC [SMIM2]: the protein stability index is 2.46 ± 0.41 under setting [1] and 2.32 ± 0.18 under setting [2].

THVLSKEVQHLREEKSKQFLDLME [LRRC45]: the protein stability index under setting [1] was 3.66 ± 0.26 and the protein stability index under setting [2] stood at 3.81 ± 0.26.

Turning to PCSPDSSSVCVQGRCIHAGCDRII [ADAMTS4], the protein stability index was 3.84 ± 0.58 under setting [1] and 3.67 ± 0.25 under setting [2].

Consider DDDDDDAQILPSRVQGGCYRFDSS [DRICH1], for which the protein stability index came to 4.65 ± 0.095 under setting [1] and 4.88 ± 0.15 under setting [2].

Take KPPPNSEGEQGPNGSQNSSYSQS [CCNC]: the protein stability index reads like this: under setting [3], 5.36 ± 0.24; under setting [4], 5.41 ± 0.27.

For the sequence ECRSSVTSDSEGAHVNTLHSGTKR [PHTF1], the protein stability index is, setting by setting: under setting [1], 4.87 ± 0.32; under setting [2], 4.88 ± 0.17.

As for SSNGNDNGNGKNGGLEHVPSSSSI [BNIP3L], the protein stability index reads like this: under setting [1], 5.2 ± 0.29; under setting [2], 5.33 ± 0.17.

For the sequence EGLAFLVSCPEGRADCASESACSS [PWWP2B], the protein stability index stood at 3.6 ± 0.41 under setting [1] and 3.71 ± 0.24 under setting [2].

As for LDHLSLGEEPVPHQQVEEALSFTL [NEK8], the protein stability index amounted to 4.1 ± 0.35 under setting [1] and 4 ± 0.29 under setting [2].

Regarding RRTLQGLEIELQSQLSMKAGLENT [KRT13], the protein stability index by setting is: under setting [1], 3.4 ± 0.24; under setting [2], 3.34 ± 0.37.

For the sequence RPGPSASAASSAAAGEPLECPTCG [RNF208], the protein stability index is, setting by setting: under setting [1], 5.3 ± 0.2; under setting [2], 5.3 ± 0.28.

Consider HRRDGKWQNVHFHCSGAPVAPLQ [CAMK2B], for which the protein stability index was 2.39 ± 0.31 under setting [3] and 2.6 ± 0.34 under setting [4].

For the sequence VSPPESPTVTTSWQSESLPVSLSA [BCL2L13], the protein stability index came out at 4.43 ± 0.08 under setting [1] and 4.37 ± 0.27 under setting [2].

As for MHLNAEGMLSYCDRYSEGIKHVLQ [CRYL1], the protein stability index runs as follows: under setting [1], 2.4 ± 0.29; under setting [2], 2.32 ± 0.42.

As to KNLQQTTNTTSTQMTNIGVYVSNM [IQUB], the protein stability index under setting [1] came out at 3.25 ± 0.29 and the protein stability index under setting [2] was found to be 3.17 ± 0.22.

On to QVDSLRPASFPTWGCDLGVVTRVV [BRF1], for which the protein stability index by setting is: under setting [1], 2.66 ± 0.11; under setting [2], 2.5 ± 0.18.

With NGSDPRSFPLWYEEALKDEEERAQ [MAGEA10], the protein stability index is, setting by setting: under setting [1], 5.34 ± 0.36; under setting [2], 5.42 ± 0.2.

Turning to CFKAKLHRKRGSQPPDMASALTDR [RSPH3], the protein stability index under setting [1] amounted to 3.66 ± 0.26 and the protein stability index under setting [2] came to 3.95 ± 0.28.

Consider VSITLLALVYLPGVIAAIVQLHNG [STEAP1], for which the protein stability index runs as follows: under setting [1], 3.5 ± 0.33; under setting [2], 3.11 ± 0.14.

Turning to LRRTMQELEIELQSQLSMKAGLEN [KRT15], the protein stability index was 2.86 ± 0.22 under setting [1] and 3.13 ± 0.38 under setting [2].

HCMAPPLLHLDLKPANILLDAHYH [RIPK4]: the protein stability index runs as follows: under setting [1], 2.27 ± 0.23; under setting [2], 2.38 ± 0.22.

For ASLGREESRAPSPLLHKDSASLEV [CBY2], the protein stability index was determined as 4.79 ± 0.31 under setting [1] and 4.85 ± 0.19 under setting [2].

Take KTPEEAYRALLSGSNPPYLPFRDA [CDC14A]: the protein stability index was found to be 3.27 ± 0.3 under setting [1] and 3.31 ± 0.25 under setting [2].

Consider ICMAQIAYSGNTSNLSYHLEKNHP [ZBED1], for which the protein stability index under setting [1] was 2.3 ± 0.24 and the protein stability index under setting [2] worked out at 2.38 ± 0.26.

On to AIMLLPDENREVLQTLLYFLSDVT [DLC1], for which the protein stability index runs as follows: under setting [1], 2.12 ± 0.23; under setting [2], 2.19 ± 0.13.

Turning to ADRQCQLTFGPDSRHCPQLPPPCA [ADAMTS4], the protein stability index by setting is: under setting [1], 4.08 ± 0.16; under setting [2], 4.08 ± 0.081.

For the sequence RITKDNRRHCQACRLKRCVDIGMM [VDR], the protein stability index reads like this: under setting [1], 2.42 ± 0.36; under setting [2], 2.68 ± 0.29.

With NIVFGTGPRVGEALVSHPEVPLIS [ALDH8A1], the protein stability index stood at 2.9 ± 0.21 under setting [1] and 2.83 ± 0.27 under setting [2].

Turning to GKGDDSETDKNNCSNAKAVETDV [KCNA4], the protein stability index came to 5.13 ± 0.28 under setting [3] and 5.52 ± 0.38 under setting [4].

AGSTAGAAETRGAVEGAARTTPSR [PALM]: the protein stability index runs as follows: under setting [1], 5.11 ± 0.36; under setting [2], 5.14 ± 0.27.

Take NISDLPFLAENSAFPKMALQAKQD [LCOR]: the protein stability index runs as follows: under setting [1], 4.42 ± 0.2; under setting [2], 4.39 ± 0.2.

SEEGSWAQTLAYGDMNHEWIGNEW [PPFIA4]: the protein stability index was 3.89 ± 0.41 under setting [1] and 3.8 ± 0.28 under setting [2].

As to FVFSTEERTQLRLESLEDTHIMKG [TRIB1], the protein stability index under setting [1] was determined as 2.85 ± 0.63 and the protein stability index under setting [2] amounted to 3.36 ± 0.41.

Take WSQPITTGKAPSPRAAHACATVGN [KLHDC2]: the protein stability index runs as follows: under setting [1], 3.84 ± 0.3; under setting [2], 3.92 ± 0.2.

For TYLSKVDPDGKKIKQIQQLFEEIL [FBXO33], the protein stability index came out at 2.25 ± 0.24 under setting [1] and 1.84 ± 0.26 under setting [2].

As for GESFPAQVPSGEDQTALSLEECLR [NFE2L1], the protein stability index under setting [1] was found to be 5.08 ± 0.89 and the protein stability index under setting [2] stood at 5.15 ± 0.076.

GPLAETTEDFWRMLWEHNSTIVVM [PTPRD]: the protein stability index reads like this: under setting [1], 2.48 ± 0.42; under setting [2], 2.4 ± 0.33.

Regarding RQKEVDFCISLLRERFMECLMIGR [INTS3], the protein stability index by setting is: under setting [1], 2.52 ± 0.74; under setting [2], 2.28 ± 0.13.

Consider KLKVQALKDRGLSIPRADTLDEY [LSM1], for which the protein stability index reads like this: under setting [3], 4.01 ± 0.2; under setting [4], 4.04 ± 0.33.

With QKQRLREILEQQQQERNDTNFHGV [ZNF277], the protein stability index reads like this: under setting [1], 4.53 ± 0.3; under setting [2], 4.59 ± 0.23.

As to TNPDLYPVRRIDGLTDVSQIITVT [IQUB], the protein stability index was 2.86 ± 0.26 under setting [1] and 3.06 ± 0.26 under setting [2].

WDPACLPLPPPPPAFKSMEVANFY [CEBPB]: the protein stability index runs as follows: under setting [1], 3.02 ± 0.28; under setting [2], 3.28 ± 0.47.

Turning to EPEKIYAMPDPTVPDSDIKALTTL [ESRRG], the protein stability index was 4.46 ± 0.15 under setting [1] and 4.6 ± 0.2 under setting [2].

ATQMMVDIDGDVLVFLELAQFHCA [RHOBTB2] had a protein stability index under setting [1] of 3.08 ± 0.33 and a protein stability index under setting [2] of 2.89 ± 0.75.

Take KELGQSQKEQGLSDNILSPVMNGG [PDZK1]: the protein stability index worked out at 4.73 ± 0.34 under setting [1] and 5.09 ± 0.28 under setting [2].

For LGTKSCSSSCAVHDLIFWRDVKKT [RTN3], the protein stability index is, setting by setting: under setting [1], 2.29 ± 0.45; under setting [2], 2.09 ± 0.33.

For the sequence LPQDEGGGGYSSVRYSDCCERVVI [KCNA4], the protein stability index runs as follows: under setting [1], 2.41 ± 0.3; under setting [2], 2.77 ± 0.53.

Regarding SAEINQDLNIQLLKDGYRLDEIPD [FAM219A], the protein stability index runs as follows: under setting [1], 4.91 ± 0.062; under setting [2], 5.08 ± 0.18.

On to HRDLKPENLLLASKLKGAAVKLAD [CAMK2A], for which the protein stability index was 3.67 ± 0.22 under setting [1] and 3.62 ± 0.091 under setting [2].

For the sequence AESWCYTQVKVVKFSYMWTINNFS [SPOPL], the protein stability index was determined as 3.24 ± 0.56 under setting [1] and 3.01 ± 0.5 under setting [2].

Regarding DCIFDKFECAWNGSDSVIMTGAYN [PPP2R2C], the protein stability index runs as follows: under setting [1], 2.68 ± 0.3; under setting [2], 2.74 ± 0.17.

TRQLSEENANLQEYVEKETQEKKR [MTUS2] displayed a protein stability index under setting [1] of 5.33 ± 0.14 and a protein stability index under setting [2] of 5.56 ± 0.12.

Sequence ALKERADSLAKEIQYLKDLIEEVR [ATF4] yielded a protein stability index under setting [1] of 4.49 ± 0.36 and a protein stability index under setting [2] of 4.59 ± 0.057.

In the case of APSATIHQGEEEGPLDIWAVVKPG [FBXO34], the protein stability index under setting [1] turned out to be 4.71 ± 0.27 and the protein stability index under setting [2] amounted to 4.79 ± 0.13.

HKKKSPGEKPHRCPQCGKCFARKS [ZNF449] returned a protein stability index under setting [1] of 3.86 ± 0.55 and a protein stability index under setting [2] of 4.23 ± 0.43.

Consider GLANSSRVRGRVGTIRPVRCPSSS [C22orf15], for which the protein stability index is, setting by setting: under setting [1], 4.12 ± 0.14; under setting [2], 4.23 ± 0.21.

Turning to EEEKILRVKLEEDPDGEEGSSIPW [ZNF24], the protein stability index came to 5.56 ± 0.13 under setting [1] and 5.58 ± 0.26 under setting [2].

As for CTDFCLRNLDGTLGYLLDKETLRL [ZER1], the protein stability index reads like this: under setting [1], 2 ± 0.23; under setting [2], 2.13 ± 0.17.

As for ALCQGLYFHINQTLREAHFHSLQH [FAM104A], the protein stability index was determined as 2.81 ± 0.54 under setting [1] and 2.8 ± 0.51 under setting [2].

As to TETQRLGLAMALEPNTTFLRKSLK [FANCE], the protein stability index under setting [1] was found to be 4.05 ± 0.19 and the protein stability index under setting [2] is 4.14 ± 0.16.

Consider KEPPLLLGVLHPNTKLRQAERLFE [APMAP], for which the protein stability index came out at 2.64 ± 0.38 under setting [1] and 2.78 ± 0.47 under setting [2].

The sequence RREVAKTVFCLVVIFALCWFPLHL [EDNRA] returned a protein stability index under setting [1] of 2.93 ± 0.19 and a protein stability index under setting [2] of 2.53 ± 0.27.

As to EPPHNLFCAPGSWEWNELDHIMEI [SERTAD3], the protein stability index runs as follows: under setting [1], 2.93 ± 0.13; under setting [2], 3.07 ± 0.25.

As for VYTGKLLLNLVDHTEVVRDLTFAP [WSB1], the protein stability index reads like this: under setting [1], 2.2 ± 0.28; under setting [2], 2.36 ± 0.35.

CVSHLIIVTVHYGCASFIYLRPQS [OR10K2]: the protein stability index is 2.99 ± 0.35 under setting [1] and 3.04 ± 0.46 under setting [2].

In turn, GGGGVAAVVVLDQGSRHWQKLREE [DUSP5] came in with a protein stability index under setting [1] of 2.96 ± 0.26 and a protein stability index under setting [2] of 2.65 ± 0.3.

As to KGAVNLHMEEEVEDFLLKKPIVPT [CDC25A], the protein stability index reads like this: under setting [1], 4.14 ± 0.31; under setting [2], 4.13 ± 0.2.

As for LIGLPPEDDWPRDVSLPRGAFPPR [CDK4], the protein stability index by setting is: under setting [1], 3.49 ± 0.32; under setting [2], 3.69 ± 0.23.

Regarding PVAMRVAKLAINQGMEVDLVTGLA [AUH], the protein stability index was determined as 2.65 ± 0.29 under setting [1] and 2.92 ± 0.5 under setting [2].

On to AYISLVEEEDQHMKLSLGGSEMGL [KLHL13], for which the protein stability index reads like this: under setting [1], 2.98 ± 0.38; under setting [2], 3.06 ± 0.52.

Consider GVCGDRATGFHFNAMTCEGCKGFF [VDR], for which the protein stability index reads like this: under setting [1], 2.28 ± 0.13; under setting [2], 2.38 ± 0.19.
